The results in this text go back to the supplement of paper PMC5998384.

The subject of data set [1] is HeLa Kyoto. Nature of the data set: solubility in G1/S (NP-40 vs SDS abundance) (log2 ratio); higher = more soluble. Conditions: cell cycle stage: G1/S.
The test system of data set [2] is HeLa Kyoto. The experiment in a line: solubility change mitosis vs G1/S (difference of NP-40 vs SDS log2 ratios) (log2 ratio difference); higher = more soluble in mitosis.
Data set [3] concerns HeLa Kyoto. Nature of the data set: melting temperature (median over replicates), in situ; higher = more thermally stable.
For data set [4], the system named is HeLa Kyoto. The experiment in a line: thermal stability score vs G1/S (z-score of summed log2 fold changes over temperatures); higher = more thermally stable than in G1/S.
Where [5] appears, read: cell cycle stage: early G1 (4.5 h after nocodazole release).
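Throughout, for melting temperature (median over replicates), in situ: HeLa Kyoto cells synchronized by double thymidine or nocodazole block, proteins quantified by TMT10plex mass spectrometry, three independent biological replicates.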
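Throughout, for solubility change mitosis vs G1/S (difference of NP-40 vs SDS log2 ratios): synchronized HeLa Kyoto cells (double thymidine block for G1/S, nocodazole release for mitosis), protein amounts in NP-40 versus SDS lysates quantified by mass spectrometry, three biological replicates.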
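Throughout, for solubility in G1/S (NP-40 vs SDS abundance): HeLa Kyoto cells arrested at G1/S by double thymidine block, proteins quantified by TMT10plex mass spectrometry in mild NP-40 versus SDS extracts, three biological replicates.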
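Throughout, for thermal stability score vs G1/S (z-score of summed log2 fold changes over temperatures): synchronized HeLa Kyoto cells, proteins quantified by TMT10plex mass spectrometry, three biological replicates, mitosis taken 0.5 h after nocodazole release, G1/S directly after double thymidine block.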

Consider “MADEALAGLDEGALRKLLEVTADLAERRRIRSAIRELQRQELEREEEALASKRFRAERQDNKENWLHSQQREAEQRAALARLAGQLESMNDVEELTALLRSAGEYEERKLIRAAIRRVRAQEIEAATLAGRLYSGRPNSGSREDSKGLAAHRLEQCEVPEREEQEQQAEVSKPTPTPEGTSQDVTTVTLLLRAPPGSTSSSPASPSSSPTPASPEPPLEPAEAQCLTAEVPGSPEPPPSPPKTTSPEPQESPTLPSTEGQVVNKLLSGPKETPAAQSPTRGPSDTKRADVAGPRPCQRSLSVLSPRQPAQNRESTPLASGPSSFQRAGSVRDRVHKFTSDSPMAARLQDGTPQAALSPLTPARLLGPSLTSTTPASSSSGSSSRGPSDTSSRFSKEQRGVAQPLAQLRSCPQEEGPRGRGLAARPLENRAGGPVARSEEPGAPLPVAVGTAEPGGSMKTTFTIEIKDGRGQASTGRVLLPTGNQRAELTLGLRAPPTLLSTSSGGKSTITRVNSPGTLARLGSVTHVTSFSHAPPSSRGGCSIKMEAEPAEPLAAAVEAANGAEQTRVNKAPEGRSPLSAEELMTIEDEGVLDKMLDQSTDFEERKLIRAALRELRQRKRDQRDKERERRLQEARGRPGEGRGNTATETTTRHSQRAADGSAVSTVTKTERLVHSNDGTRTARTTTVESSFVRRSENGSGSTMMQTKTFSSSSSSKKMGSIFDREDQASPRAGSLAALEKRQAEKKKELMKAQSLPKTSASQARKAMIEKLEKEGAAGSPGGPRAAVQRSTSFGVPNANSIKQMLLDWCRAKTRGYEHVDIQNFSSSWSDGMAFCALVHNFFPEAFDYGQLSPQNRRQNFEVAFSSAEMLVDCVPLVEVDDMMIMGKKPDPKCVFTYVQSLYNHLRRHELRLRGKNV [SMTN]”, for which, in the data set on HeLa Kyoto [1], the “solubility in G1/S (log2)” value is -0.058. Moreover, the “solubility change mitosis (log2)” value with HeLa Kyoto [2] worked out at 0.208. The melting temperature in the data set with HeLa Kyoto [3] (cell cycle stage: G1/S) was 48.9 °C; in the data set on HeLa Kyoto [3] (cell cycle stage: mitosis), 50 °C. Besides, the thermal stability score was determined as 0.326 in the data set with HeLa Kyoto [4] (setting [5]) and 0.869 in the data set with HeLa Kyoto [4] (cell cycle stage: mitosis).

On to “MADGEEPEKKRRRIEELLAEKMAVDGGCGDTGDWEGRWNHVKKFLERSGPFTHPDFEPSTESLQFLLDTCKVLVIGAGGLGCELLKNLALSGFRQIHVIDMDTIDVSNLNRQFLFRPKDIGRPKAEVAAEFLNDRVPNCNVVPHFNKIQDFNDTFYRQFHIIVCGLDSIIARRWINGMLISLLNYEDGVLDPSSIVPLIDGGTEGFKGNARVILPGMTACIECTLELYPPQVNFPMCTIASMPRLPEHCIEYVRMLQWPKEQPFGEGVPLDGDDPEHIQWIFQKSLERASQYNIRGVTYRLTQGVVKRIIPAVASTNAVIAAVCATEVFKIATSAYIPLNNYLVFNDVDGLYTYTFEAERKENCPACSQLPQNIQFSPSAKLQEVLDYLTNSASLQMKSPAITATLEGKNRTLYLQSVTSIEERTRPNLSKTLKELGLVDGQELAVADVTTPQTVLFKLHFTS [UBA3]”, for which the “solubility in G1/S (log2)” value in the data set with HeLa Kyoto [1] was 0.115. The “solubility change mitosis (log2)” value with HeLa Kyoto [2] was -0.178. The melting temperature in the data set on HeLa Kyoto [3] (cell cycle stage: G1/S) came to 51.8 °C; in the data set with HeLa Kyoto [3] (cell cycle stage: mitosis), 51.5 °C. In addition, the thermal stability score in the data set on HeLa Kyoto [4] (setting [5]) was 1.23; in the data set on HeLa Kyoto [4] (cell cycle stage: mitosis) it was 1.76.

On to “MADGKAGDEKPEKSQRAGAAGGPEEEAEKPVKTKTVSSSNGGESSSRSAEKRSAEEEAADLPTKPTKISKFGFAIGSQTTKKASAISIKLGSSKPKETVPTLAPKTLSVAAAFNEDEDSEPEEMPPEAKMRMKNIGRDTPTSAGPNSFNKGKHGFSDNQKLWERNIKSHLGNVHDQDN [PCNP]”, for which the “solubility in G1/S (log2)” value in the data set on HeLa Kyoto [1] is 0.559. Besides, the “solubility change mitosis (log2)” value with HeLa Kyoto [2] amounted to 0.0732. The melting temperature in the data set with HeLa Kyoto [3] (cell cycle stage: G1/S) was determined as 59.4 °C; in the data set on HeLa Kyoto [3] (cell cycle stage: mitosis), 53.8 °C. In addition, the thermal stability score with HeLa Kyoto [4] (setting [5]) was -1.76; with HeLa Kyoto [4] (cell cycle stage: mitosis) it was -6.06.

Turning to “MADGPRCKRRKQANPRRNNVTNYNTVVETNSDSDDEDKLHIVEEESVTDAADCEGVPEDDLPTDQTVLPGRSSEREGNAKNCWEDDRKEGQEILGPEAQADEAGCTVKDDECESDAENEQNHDPNVEEFLQQQDTAVIFPEAPEEDQRQGTPEASGHDENGTPDAFSQLLTCPYCDRGYKRFTSLKEHIKYRHEKNEDNFSCSLCSYTFAYRTQLERHMTSHKSGRDQRHVTQSGCNRKFKCTECGKAFKYKHHLKEHLRIHSGEKPYECPNCKKRFSHSGSYSSHISSKKCISLIPVNGRPRTGLKTSQCSSPSLSASPGSPTRPQIRQKIENKPLQEQLSVNQIKTEPVDYEFKPIVVASGINCSTPLQNGVFTGGGPLQATSSPQGMVQAVVLPTVGLVSPISINLSDIQNVLKVAVDGNVIRQVLENNQANLASKEQETINASPIQQGGHSVISAISLPLVDQDGTTKIIINYSLEQPSQLQVVPQNLKKENPVATNSCKSEKLPEDLTVKSEKDKSFEGGVNDSTCLLCDDCPGDINALPELKHYDLKQPTQPPPLPAAEAEKPESSVSSATGDGNLSPSQPPLKNLLSLLKAYYALNAQPSAEELSKIADSVNLPLDVVKKWFEKMQAGQISVQSSEPSSPEPGKVNIPAKNNDQPQSANANEPQDSTVNLQSPLKMTNSPVLPVGSTTNGSRSSTPSPSPLNLSSSRNTQGYLYTAEGAQEEPQVEPLDLSLPKQQGELLERSTITSVYQNSVYSVQEEPLNLSCAKKEPQKDSCVTDSEPVVNVIPPSANPINIAIPTVTAQLPTIVAIADQNSVPCLRALAANKQTILIPQVAYTYSTTVSPAVQEPPLKVIQPNGNQDERQDTSSEGVSNVEDQNDSDSTPPKKKMRKTENGMYACDLCDKIFQKSSSLLRHKYEHTGKRPHECGICKKAFKHKHHLIEHMRLHSGEKPYQCDKCGKRFSHSGSYSQHMNHRYSYCKREAEERDSTEQEEAGPEILSNEHVGARASPSQGDSDERESLTREEDEDSEKEEEEEDKEMEELQEEKECEKPQGDEEEEEEEEEVEEEEVEEAENEGEEAKTEGLMKDDRAESQASSLGQKVGESSEQVSEEKTNEA [ZEB1]”, in the data set on HeLa Kyoto [1], the “solubility in G1/S (log2)” value is -0.154. Moreover, the “solubility change mitosis (log2)” value with HeLa Kyoto [2] is -0.0271. The melting temperature amounted to 52.8 °C with HeLa Kyoto [3] (cell cycle stage: G1/S) and 53.9 °C in the data set with HeLa Kyoto [3] (cell cycle stage: mitosis). Further, the thermal stability score in the data set with HeLa Kyoto [4] (setting [5]) is -0.796; with HeLa Kyoto [4] (cell cycle stage: mitosis) it was 2.75.

Turning to “MADGSLTGGGLEAAAMAPERMGWAVEQELASLEKGLFQDEDSCSDCSYRDKPGSSLQSFMPEGKTFFPEIFQTNQLLFYERFRAYQDYILADCKASEVQEFTAEFLEKVLEPSGWRAVWHTNVFKVLVEITDVDFAALKAVVRLAEPYLCDSQVSTFTMECMKELLDLKEHRLPLQELWVVFDDSGVFDQTALAIEHVRFFYQNIWRSWDEEEEDEYDYFVRCVEPRLRLHYDILEDRVPSGLIVDYHNLLSQCEESYRKFLNLRSSLSNCNSDSEQENISMVEGLKLYSEMEQLKQKLKLIENPLLRYVFGYQKNSNIQAKGVRSSGQKITHVVSSTMMAGLLRSLLTDRLCQEPGEEEREIQFHSDPLSAINACFEGDTVIVCPGHYVVHGTFSIADSIELEGYGLPDDIVIEKRGKGDTFVDCTGADIKISGIKFVQHDAVEGILIVHRGKTTLENCVLQCETTGVTVRTSAEFLMKNSDLYGAKGAGIEIYPGSQCTLSDNGIHHCKEGILIKDFLDEHYDIPKISMVNNIIHNNEGYGVVLVKPTIFSDLQENAEDGTEENKALKIQTSGEPDVAERVDLEELIECATGKMELCARTDPSEQVEGNCEIVNELIAASTQKGQIKKKRLSELGITQADDNLMSQEMFVGIVGNQFKWNGKGSFGTFLF [SHCBP1]”, in the data set with HeLa Kyoto [1], the “solubility in G1/S (log2)” value is -0.00275. Also, the “solubility change mitosis (log2)” value in the data set on HeLa Kyoto [2] was -0.188. In addition, the melting temperature is 49 °C with HeLa Kyoto [3] (cell cycle stage: G1/S) and 50.4 °C in the data set with HeLa Kyoto [3] (cell cycle stage: mitosis). Also, the thermal stability score worked out at 0.216 in the data set on HeLa Kyoto [4] (setting [5]) and 1.36 with HeLa Kyoto [4] (cell cycle stage: mitosis).

For the sequence “MADGVDHIDIYADVGEEFNQEAEYGGHDQIDLYDDVISPSANNGDAPEDRDYMDTLPPTVGDDVGKGAAPNVVYTYTGKRIALYIGNLTWWTTDEDLTEAVHSLGVNDILEIKFFENRANGQSKGFALVGVGSEASSKKLMDLLPKRELHGQNPVVTPCNKQFLSQFEMQSRKTTQSGQMSGEGKAGPPGGSSRAAFPQGGRGRGRFPGAVPGGDRFPGPAGPGGPPPPFPAGQTPPRPPLGPPGPPGPPGPPPPGQVLPPPLAGPPNRGDRPPPPVLFPGQPFGQPPLGPLPPGPPPPVPGYGPPPGPPPPQQGPPPPPGPFPPRPPGPLGPPLTLAPPPHLPGPPPGAPPPAPHVNPAFFPPPTNSGMPTSDSRGPPPTDPYGRPPPYDRGDYGPPGREMDTARTPLSEAEFEEIMNRNRAISSSAISRAVSDASAGDYGSAIETLVTAISLIKQSKVSADDRCKVLISSLQDCLHGIESKSYGSGSRRERSRERDHSRSREKSRRHKSRSRDRHDDYYRERSRERERHRDRDRDRDRERDREREYRHR [CPSF6]”, the “solubility in G1/S (log2)” value in the data set on HeLa Kyoto [1] is -0.195. In addition, in the data set on HeLa Kyoto [2], the “solubility change mitosis (log2)” value was 0.0573. Moreover, the melting temperature with HeLa Kyoto [3] (cell cycle stage: G1/S) turned out to be 53 °C; in the data set on HeLa Kyoto [3] (cell cycle stage: mitosis), 53.2 °C. The thermal stability score was -1.57 in the data set on HeLa Kyoto [4] (setting [5]) and -2.72 in the data set on HeLa Kyoto [4] (cell cycle stage: mitosis).

“MADHSFSDGVPSDSVEAAKNASNTEKLTDQVMQNPRVLAALQERLDNVPHTPSSYIETLPKAVKRRINALKQLQVRCAHIEAKFYEEVHDLERKYAALYQPLFDKRREFITGDVEPTDAESEWHSENEEEEKLAGDMKSKVVVTEKAAATAEEPDPKGIPEFWFTIFRNVDMLSELVQEYDEPILKHLQDIKVKFSDPGQPMSFVLEFHFEPNDYFTNSVLTKTYKMKSEPDKADPFSFEGPEIVDCDGCTIDWKKGKNVTVKTIKKKQKHKGRGTVRTITKQVPNESFFNFFNPLKASGDGESLDEDSEFTLASDFEIGHFFRERIVPRAVLYFTGEAIEDDDNFEEGEEGEEEELEGDEEGEDEDDAEINPKV [NAP1L4]”: the “solubility in G1/S (log2)” value in the data set with HeLa Kyoto [1] is 0.455. Besides, the “solubility change mitosis (log2)” value with HeLa Kyoto [2] was -0.0294. The results for the melting temperature in the data set on HeLa Kyoto [3] (cell cycle stage: G1/S) and in the data set with HeLa Kyoto [3] (cell cycle stage: mitosis) were 51.4 °C and 51.7 °C, respectively. Moreover, the results for the thermal stability score in the data set with HeLa Kyoto [4] (setting [5]) and in the data set with HeLa Kyoto [4] (cell cycle stage: mitosis) were 1.4 and 0.831, respectively.
